The nanobody polyreactivity screen of Harvey et al. (2022)

Experiment: yeast display, Sf9 membrane polyspecificity reagent, FACS + sequencing; frameworks hold sequencing errors
Method in brief: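 Polyreactivity labels are assigned by the sorting gate from which each nanobody was recovered. The gates were low and high (top ~1%), set on anti-HA fluorescence for expression and streptavidin fluorescence for reagent binding. Before sorting, galactose-induced (36–48 hours) yeast display cells were stained for 1 hour at 4 °C with 10% biotinylated, detergent-solubilized Sf9 membrane reagent.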

Sequence | polyreactivity (PSR sort gate)
QVQLVESGGGLVQAGGSHRLSCAASGNTFPLYAMGWYRQAPGKERELVAAISQRGGSTYYADSVKGRFTISRDNAKNTVYLQMNSLKPEDTAVYYCAATWADEYQYRRYYYWGHGTQVTVSS | high polyreactivity
QVQLVESGGGLVQAGGSHRLSCAASGRIFSVNAMGWYRQAPGKERELVASISWSGGSTYYADSVKGRFTISRDNAKNPVYLQMNSLKPEDTAVYYCNARIDSYGLDFDYWGQGTQVTVSS | low polyreactivity
QVQLVESGGGLVQAGGSHRLSCAASGRTFRRNTMGWYRQAPGKERELVAAISSSGSSTYYADSVKGRFTISRDNAKNSVYLQMNSLKPEDTAVYYCAATGYPRFGYWGQGTQVTVSS | high polyreactivity
QVQLVESGGGLVQAGGSHRLSCAASGRTFRYYTMGWYRQAPGKEREFVAAISSTGGTYYADSVKGRFTISRDNAKNTVYLQMNSLKPEDTAVYYCAKVYFWGALSPDKYDEDYWGQGTQVTVSS | low polyreactivity
QVQLVESGGGLVQAGGSHRLSCAASGRTFSPNAMGWYRQAPGKERELVAAISYRSYRTYYADSVKGRFTISRDKAKNTVYLQMNSLKPEDTAVYYCNADRTRGFQRYDYWGQGTQVTVSS | high polyreactivity
QVQLVESGGGLVQAGGSHRLSCAASGRTFSPYVMGWSREAPGKEREYVARITWSGGSTYYADSVKGRFTISRDNAMYTVYLQMNSLKPEDTAVYYCNARGVFYVYKHDYWGQGTQVTVSS | high polyreactivity
QVQLVESGGGLVQAGGSHRLSCAASGRTFWKYVMGWYRQAPGTERELVAVISRPAGSTYYADSVKGRFTISRHNEKNTVYLQMNSLKPEDTAVYYCAKRPKNKPVLGDYDHWGQGTQVTVSS | low polyreactivity
QVQLVESGGGLVQAGGSHRLSCAASGRTFWYTMGWYRQAPGKERELVAAITWSGGSTYYADSVKGRFTISRDNAMNTVYLQMNSLNPEDTAVYYWNAADYQLWFGYDYWGQGTQVTVSS | low polyreactivity
QVQLVESGGGLVQAGGSHRLSCAASGSIFKDNAMGWYRQAPGKERELVAAITSGASTNYADSVKGRFTMSRDNAKNTVYLQMNSLKPEDTAVYYCAAGTRPTRFVGTKYDYWGQGTQVTVSS | low polyreactivity
QVQLVESGGGLVQAGGSHRLSCAASGSIFRRYAMGWYRQAPGKERELVAAIDSGGNTYADSVKGRFTISRDNAKNTVYLQMISLQPEDTAVYYCSADGGEFSSYGYWGQGTQVTVSS | low polyreactivity
QVQLVESGGGLVQAGGSHRLSCAASGSIFRWYAMGWYRQAPGKERELVAAITSGGGTNYADSVKGRFTISRDNAKNTVYIQMNCLKPEDTAVYYCNAAAWLRWGYRGGFWRYDYWGQGTQVTVSS | high polyreactivity
QVQLVESGGGLVQAGGSHRLSCAASGSIFSYYAMGWYRPAPGKERELVAAISWGDDSTYYAASVKGRFTISRDNEKNTVYLHMNSLKPEDTAVYYCAADRVGWYRTFDYWGQGSQVTVSS | low polyreactivity
QVQLVESGGGLVQAGGSHRLSCAASGSIFYVNAMGWYRQSPGKERELVAAINRGGVSTYYADSVKGRFTISRDNAKNTVYLLMNSLKPEDTAVYYCATDFYLSTYSHYVWLYGYEFYYWGQGTQVTVSS | low polyreactivity
QVQLVESGGGLVQAGGSHRLSCAASGSILEIYAMGWYRQAPGKEREFVASISWDVSSTYYADSVKGRFTISRDNAKNTVYLQMYSLKPEDPAVYYCATSLVWGLYDWYYDLSAAFDYWGQGTQVTVSS | low polyreactivity
QVQLVESGGGLVQAGGSHRLSCAASGSNAMGWYRQAHGKERELVAVITGGGSTHYADSVKGRYTISRDNAKNTVYLLMNSLKAEVTAVYYCAAVYWHSRGKFADIAVDYWGQGTQVTVSS | low polyreactivity
QVQLVESGGGLVQAGGSHRLSCAASGSTFTKNAMGWYRQAPGKERELVATISSGGYTNYADSVKGRFTISRDNAKNSVYLQMNSLKPEDTAVYYCNAVYRYRTRREYGYWGQGTQVTVSS | high polyreactivity
QVQLVESGGGLVQAGGSHRLSCAASGSTFYYYAMGWYRQAPGKERELVAAISKSGGRTYYADSVKGRFTFSRDNAKNTVYLQMNSLKPEDTAVYYCNAVQYLNGYDYWGQGTQVTVSS | high polyreactivity
QVQLVESGGGLVQAGGSHRLSCADSGRTFRTYAMGWYRQAPGKERELVAAITTSGSSTYYADSVKGRFTISRDNAKNTVYLQMNSLKPEDTAVYYCAAARSAIVPGYYSWGQGTQVTVSS | low polyreactivity
QVQLVESGGGLVQAGGSHRLSCASSGRTFYRNAMGWYRQPPGKERELVAAISSGTSTNYADSVKGRFTISRDNAKNTVYLQMNSLKPEDTAVYYCAKERPRGAPAYYSRIYDYWGQGTQVTVSS | high polyreactivity
QVQLVESGGGLVQAGGSHRLSCASSGSTFLPNAMGWYRQPPGKERELVAAITNSGGNTYADSVKGRFTISRDNAKNTVYLEMNSLKPEDTAVYYCNARFSPTGWARGNDYWGQGTQVTVSS | low polyreactivity
QVQLVESGGGLVQAGGSHRLSCSASGQTFVKNAMGWYRQAPGKERELVAAITVSGSRTYYADSVKGRFTISRDNAKNTVYLQMNSLKPEDTAVYYCAAKTADRFAPYYYWGQGTQVTVSS | high polyreactivity
QVQLVESGGGLVQAGGSHRLSSAASARIFAVNVMGWYRQAPGKERELVAAISWSDDIKYYADSVKGRFTISRDNAKNTVYLQMNSLKPEDTAVYYCAADFLPLHADDDDEDYWGQGTQVTVST | high polyreactivity

Sequence | polyreactivity (PSR sort gate)
QVQLVESGGGLVQAGGSHRLSSAASGGIFGKYAMGWYRQAPGKEMDLVAAITWNGGRTYYADSVKGRFTISRDNAKYTLYLQMNSLKPVDTAVHFCAVDDAYPDRYDYWGQGSQVTVSS | high polyreactivity
QVQLVESGGGLVQAGGSHRVSCAASGYIFLHYAMGWYRQATGKEREFVAAITYSGGNTYYADSVKGRFTISRDNAKNTVYLQMISLKPEDTAGYYCAKTRIYSKHWTEPYFYRVDSWGQGTQVTVSS | high polyreactivity
QVQLVESGGGLVQAGGSIRFSCAASGRIFAHYAMGWYRPAPGKERELVAAISSSGTRTYYADSVKGRFTISRDNAKNTVYLQMNSLKPEDTAVFYCAKDSYHTVWGGYWGQGTQVTVSS | high polyreactivity
QVQLVESGGGLVQAGGSIRLRCAASGITFYYYAMGWYRQAPAKERELVAAISRSGITYYADSVKGRFTISRDNAKNSVYLQMNSLKPEDTAVYYGAAGRRFDQSMYYGGQGTQVTVSS | high polyreactivity
QVQLVESGGGLVQAGGSIRLSCAASGFIFKWYAMGWYRQAPGKERELVAVINRSGSTYYADSVKGRFTISRDNAKNTVYLQMNSLKPEDTAVYYCAAVQQYSSVYYYTYDYWGQGTQVTVSS | high polyreactivity
QVQLVESGGGLVQAGGSIRLSCAASGFIFWANAMGWYIQAPGKERELVAAISGSGGRTYYADSVKGRFTISRDNAKNTVYLQMNSLKPEDTAVYYCAAKVSAWKKKSEMNYWGQGTQVTVSS | high polyreactivity
QVQLVESGGGLVQAGGSIRLSCAASGFNFRWYAMGWYRQAPGKERELVAAIRSGGSTNYADSVKGRFTIARDNAKNTVSLQMNSLKPEDRAVYYCAAERTSYYYSNDYWGQGTQVTVSS | high polyreactivity
QVQLVESGGGLVQAGGSIRLSCAASGGTFSYYAMGWYRQAPGKESELVAAISGNGDTTYYADSVKGRFTISRDNAKNTDYVQMNSLKPEDTAVYYCATAFSYGGGAYDYWGQGTLVTVSS | low polyreactivity
QVQLVESGGGLVQAGGSIRLSCAASGIIFLGNAMGWYRQAPGIERELVAAITASGTTSYYADSVKGRFTISRDNAKNTVSLQMNSLKPEDTAVDYCAAQSTWYDFYYWVQGTQVTVSS | low polyreactivity
QVQLVESGGGLVQAGGSIRLSCAASGITFYKYAMGWYRQAPGKERELVAAISGNGGSTYYADSVKGRFTISRDYAKNTVYLQMNSLKPEDTAVYFCNRGYRRTDNYWGQGTQVTVSS | high polyreactivity
QVQLVESGGGLVQAGGSIRLSCAASGITFYRNAMGWYRQAPGKEKELVAAITWNGGRTYYADSVKGRFTISRDNAKNTVYLQMNSLKPEDTAVYYCAAAYPTYRHYYWGQGTQVTVSS | low polyreactivity
QVQLVESGGGLVQAGGSIRLSCAASGRIFAYNPMGWSRQAPGKERELVAVITSGRSTNYADSVKGRFTISRDNEKNNVYLQMNSLKPVDTAFYYCAKRPYGRSGGSRYDYWGQGTQGTVSS | high polyreactivity
QVQLVESGGGLVQAGGSIRLSCAASGRIFGRYAMGWYRQAPGKEMELVATITWRGGITYYADSVKGRFTISRDNAKNTVYLQLKRLKPEDNAVYYCAAGYGRIPYEYWGQGTQVTVSS | high polyreactivity
QVQLVESGGGLVQAGGSIRLSCAASGRTFKKYAMGWYRQAPGKERELVAAITGSGGSTYYADSVKGRFTISRDNAKNTVYLQINSLKPEDTAVYYCAAYAYGVGHSQDGGNYWGQGNQVTVSS | low polyreactivity
QVQLVESGGGLVQAGGSIRLSCAASGSIFTINTMGWYRQAPGKERELVAAISKRGGSTYYADSVKGRFTISRDNAKNTVYLQKNSLKPEDTAVYYCAARQFYKYYYWGQGTQVTVSS | high polyreactivity
QVQLVESGGGLVQAGGSIRLSCAASGSIYKSNTMGRYRQAPGKEREFVAAISWGGGSTYYADSVKGRFTISRDNAKHTVYLQMNSLKPEDTAVYYCATRPGTRPAYDYWGQGTQVTVSS | high polyreactivity
QVQLVESGGGLVQAGGSIRLSCAASGSTFYLYAMGWSRPAPGKERELVATITNGGGTNYADSVKGRFTISRDNEKNTVYIQMNTLKPEDTAVYYCAATWYHRDGDYWGQGTQVTVSS | low polyreactivity
QVQLVESGGGLVQAGGSISLSCAASGYIFHVYAMGWYRQAPGKERELVAAITSSGGSTYYADSVKGRFTISRDNAKNTVYLQMNSLKPEDTAVYYCAAAPCSFRYRYVVFTFGYWGQGTQVTVSS | high polyreactivity
QVQLVESGGGLVQAGGSLCLSCAASGIFVYNAMGWYRQAPGKEREFVAAINKSGASTFYADSVKGRFTISRDNAKNTVYLQMNSLKPEDTAVYYCRERDYWGQGTQVTVSS | low polyreactivity
QVQLVESGGGLVQAGGSLGLSCAASGFIFDAYAMGWYRQAPGKERELVAGISIGGRTNYADSVKGRFTISRDNAKNTVYLQMNSLKPEDTAVYYCAARNYRYYYGSYYRGPITNYEYWGQGTQVTVSS | low polyreactivity
QVQLVESGGGLVQAGGSLGLSCAASGGILQSYAMGWYRQAPGKERELVATITYSAGSTYYADSVKGRFTISRDNAKNTVYLQMKSLKPEDTAVYVCAARRIPPARYKGYYYWGQGTQLTVSS | high polyreactivity
